According to article PMC8419023 (Structure (London, England : 1993), 2021):
Read-outs that look alike come from different tables or passages of the source. No end group written: not given here.

B1: Skp2^17−85 (domain or fragment)
chain: ATSFTWGWDSSKTSELLSGMGVSALEKEEPDSENIPQELLSNLGHPESPPRKRLKSKGSDKDFVIVRRP
B2: GST-Skp2^1−64 (domain or fragment)
chain: MHRKHLQEIPDLSSNVATSFTWGWDSSKTSELLSGMGVSALEKEEPDSENIPQELLSNLGHPES
B3: GST-Skp2^1−53 (domain or fragment)
chain: MHRKHLQEIPDLSSNVATSFTWGWDSSKTSELLSGMGVSALEKEEPDSENIPQ
B4: GST-Skp2^1−74 (domain or fragment)
chain: MHRKHLQEIPDLSSNVATSFTWGWDSSKTSELLSGMGVSALEKEEPDSENIPQELLSNLGHPESPPRKRLKSKG
B5: GST-Skp2^1−94 (domain or fragment)
chain: MHRKHLQEIPDLSSNVATSFTWGWDSSKTSELLSGMGVSALEKEEPDSENIPQELLSNLGHPESPPRKRLKSKGSDKDFVIVRRPKLNRENFPG
B6: GST-Skp2^1−85 (domain or fragment)
chain: MHRKHLQEIPDLSSNVATSFTWGWDSSKTSELLSGMGVSALEKEEPDSENIPQELLSNLGHPESPPRKRLKSKGSDKDFVIVRRP

Key:
CDK2-cyclin A^173−432 [1] = target: T1, CDK2-cyclin A^173−432 (human, UniProt P24941 1-298; P20248 173-432); assay: ITC
CDK2-cyclin A^173−432 [2] = target: T1, CDK2-cyclin A^173−432; assay: fluorescence polarisation
CDK2-cyclin A^173−432 [3] = target: T1, CDK2-cyclin A^173−432; assay: fluorescence polarisation; remark: listed apart in the source
CDK2-cyclin A^173−432 [4] = target: T1, CDK2-cyclin A^173−432; assay: fluorescence polarisation; remark: listed apart in the source
CDK2-cyclin A^1−432 = CDK2-cyclin A^1−432 (human, UniProt P24941 1-298; P20248 1-432); assay: pull-down

Row | Binder | binding result (CDK2-cyclin A^1−432) | also measured
1 | B1 |  | Kd (CDK2-cyclin A^173−432 [1]): 0.496 µM; IC50 (CDK2-cyclin A^173−432 [2]): 13.4 µM; IC50 (CDK2-cyclin A^173−432 [3]): 5.1 µM
2 | SACRNLFGPV-NH2 (not fully specified (N-terminus)) [FITC-p27^27−36 peptide] |  | Kd (CDK2-cyclin A^173−432 [4]): 2.1 µM
3 | B2 | binds | 
4 | B3 | binds | 
5 | B4 | binds | 
6 | MHRKHLQEIPDLSSNVATSFTWGWDSSKTSELLSGMGVSALEK (domain or fragment) [GST-Skp2^1−43] | binds | 
7 | B5 | binds | 
8 | B6 | binds | 
